Data on 57 sequences can be found in the supplement of paper PMC10724198.

Data set [1] deals with Saccharomyces cerevisiae. The data set is described as follows: protein stability index of tFT-peptide fusion in wild type (PSI (0-1 scale)); higher = more stable (slower turnover). As to conditions: genetic background: wild type.
For data set [2], the system named is Saccharomyces cerevisiae. The data set is described as follows: protein stability index of tFT-peptide fusion in deletion strain of DOA10 (PSI (0-1 scale)); higher = more stable (slower turnover). On the procedure: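 MPS profiling in S. cerevisiae of two library types built from selected 12-aa C-degron peptides (IN1, IN2, LN1, LN3, VN2, R1-R5, W1-W3, Atg1 and Rpa12 C-termini): saturation mutagenesis libraries and C-terminal +1 capping libraries (13 aa). Each peptide is fused to the C-terminus of a sfGFP-mCherry timer, after a GGGS linker. Cells are FACS-sorted into 8 mCherry/sfGFP bins and sequenced. PSI runs from 0 (unstable) to 1 (stable), measured once in wild type and in the das1Δ or doa10Δ background.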
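Wherever protein stability index of tFT-peptide fusion in deletion strain of DOA10 is given: PSI per variant is the weighted mean of its sequencing read distribution over the sorted stability bins, counting only variants with over 10 reads summed across bins.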
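Wherever protein stability index of tFT-peptide fusion in wild type is given: PSI derived as read-weighted mean over the 8 sorting bins, only variants exceeding 10 total reads kept, mCherry placed adjacent to the peptide and sfGFP distal.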

In the case of RILRVLLPLYFR, the figures for the protein stability index in the data set on Saccharomyces cerevisiae [1] and in the data set with Saccharomyces cerevisiae [2] were 0.386 and 0.654, respectively.
On the same counts, the results for RLTRLDAIYFRI are 0.379 and 0.663.
On the same counts, the results for RQLRVLLPLYFR are 0.216 and 0.665.
Taken in the same sequence, the figures for RRLRVLLPLYFR were 0.292 and 0.668.
As to RSLAVLLPLYFR, the values for the protein stability index in the data set on Saccharomyces cerevisiae [1] and with Saccharomyces cerevisiae [2] were 0.34 and 0.68, respectively.
With RSLRVALPLYFR, the protein stability index in the data set on Saccharomyces cerevisiae [1] stood at 0.189; in the data set with Saccharomyces cerevisiae [2] it was 0.675.
On the same counts, the results for RSLRVLLHLYFR are 0.254 and 0.605.
For the sequence RSLRVLLLLYFR, the protein stability index with Saccharomyces cerevisiae [1] was found to be 0.217; with Saccharomyces cerevisiae [2] it was 0.432.
For RSLRVLLPDYFR, the protein stability index in the data set on Saccharomyces cerevisiae [1] came to 0.64; with Saccharomyces cerevisiae [2], 0.672.
Taken in the same sequence, the figures for RSLRVLLPGYFR were 0.624 and 0.673.
On the same counts, the results for RSLRVLLPLEFR are 0.601 and 0.679.
Regarding RSLRVLLPLTFR, the protein stability index worked out at 0.379 in the data set with Saccharomyces cerevisiae [1] and 0.671 with Saccharomyces cerevisiae [2].
Taken in the same sequence, the figures for RSLRVLLPLYFL were 0.319 and 0.516.
Take RSLRVLLPLYFRF: the figures for the protein stability index in the data set on Saccharomyces cerevisiae [1] and with Saccharomyces cerevisiae [2] were 0.195 and 0.584, respectively.
Taken in the same sequence, the figures for RSLRVLLPLYFRH were 0.284 and 0.616.
For the sequence RSLRVLLPLYFRQ, the protein stability index with Saccharomyces cerevisiae [1] was 0.205; in the data set on Saccharomyces cerevisiae [2], 0.606.
On the same counts, the results for RSLRVLLPLYFRV are 0.164 and 0.441.
Taken in the same sequence, the figures for RSLRVLLPLYIR were 0.255 and 0.596.
Taken in the same sequence, the figures for RSLRVLLPLYPR were 0.65 and 0.69.
On to RSLRVLLPLYWR, for which the protein stability index turned out to be 0.301 with Saccharomyces cerevisiae [1] and 0.658 in the data set on Saccharomyces cerevisiae [2].
As for RSLRVLLTLYFR, the protein stability index is 0.391 in the data set on Saccharomyces cerevisiae [1] and 0.511 in the data set on Saccharomyces cerevisiae [2].
As for RSLRVLNPLYFR, the protein stability index in the data set on Saccharomyces cerevisiae [1] worked out at 0.359; with Saccharomyces cerevisiae [2], 0.684.
Take RSLRVLWPLYFR: the protein stability index stood at 0.181 with Saccharomyces cerevisiae [1] and 0.676 in the data set with Saccharomyces cerevisiae [2].
RSLRVQLPLYFR: the protein stability index with Saccharomyces cerevisiae [1] was found to be 0.136; in the data set on Saccharomyces cerevisiae [2], 0.685.
RSLRVSLPLYFR: the protein stability index stood at 0.15 in the data set with Saccharomyces cerevisiae [1] and 0.687 in the data set with Saccharomyces cerevisiae [2].
Taken in the same sequence, the figures for RSLRVTLPLYFR were 0.159 and 0.676.
On the same counts, the results for RSPRVLLPLYFR are 0.334 and 0.681.
Taken in the same sequence, the figures for RSRRVLLPLYFR were 0.297 and 0.702.
Consider RSSRVLLPLYFR, for which the figures for the protein stability index in the data set with Saccharomyces cerevisiae [1] and with Saccharomyces cerevisiae [2] were 0.346 and 0.699, respectively.
On the same counts, the results for RVCRLDAIYFRI are 0.403 and 0.638.
Taken in the same sequence, the figures for RVIRLDAIYFRI were 0.331 and 0.653.
On the same counts, the results for RVLRVLLPLYFR are 0.369 and 0.634.
RVQRLDAIYFRI: the protein stability index in the data set with Saccharomyces cerevisiae [1] was determined as 0.426; in the data set with Saccharomyces cerevisiae [2], 0.666.
As to RVTQLDAIYFRI, the values for the protein stability index with Saccharomyces cerevisiae [1] and with Saccharomyces cerevisiae [2] were 0.524 and 0.685, respectively.
Taken in the same sequence, the figures for RVTRIDAIYFRI were 0.337 and 0.693.
On the same counts, the results for RVTRLDAINFRI are 0.683 and 0.729.
In the case of RVTRLDAIYFCI, the protein stability index in the data set on Saccharomyces cerevisiae [1] is 0.378; with Saccharomyces cerevisiae [2] it was 0.435.
On the same counts, the results for RVTRLDAIYFPI are 0.703 and 0.731.
RVTRLDAIYFRIG: the protein stability index in the data set on Saccharomyces cerevisiae [1] was determined as 0.335; with Saccharomyces cerevisiae [2], 0.408.
On the same counts, the results for RVTRLDAIYFRIP are 0.247 and 0.371.
On the same counts, the results for RVTRLDAIYFRIV are 0.0601 and 0.114.
Taken in the same sequence, the figures for RVTRLDAIYFRP were 0.643 and 0.697.
For the sequence RVTRLDAIYVRI, the protein stability index in the data set with Saccharomyces cerevisiae [1] was 0.469; in the data set with Saccharomyces cerevisiae [2] it was 0.635.
Taken in the same sequence, the figures for RVTRLDALYFRI were 0.32 and 0.705.
On to RVTRLDFIYFRI, for which the values for the protein stability index in the data set with Saccharomyces cerevisiae [1] and in the data set with Saccharomyces cerevisiae [2] were 0.171 and 0.596, respectively.
RVTRLDIIYFRI: the protein stability index with Saccharomyces cerevisiae [1] turned out to be 0.271; with Saccharomyces cerevisiae [2] it was 0.645.
As to RVTRLDNIYFRI, the protein stability index worked out at 0.484 with Saccharomyces cerevisiae [1] and 0.702 with Saccharomyces cerevisiae [2].
Taken in the same sequence, the figures for RVTRLDWIYFRI were 0.164 and 0.495.
Taken in the same sequence, the figures for RVTRLGAIYFRI were 0.317 and 0.634.
Taken in the same sequence, the figures for RVTRLQAIYFRI were 0.202 and 0.402.
RVTRVDAIYFRI: the values for the protein stability index in the data set with Saccharomyces cerevisiae [1] and in the data set with Saccharomyces cerevisiae [2] were 0.442 and 0.68, respectively.
Taken in the same sequence, the figures for RYLRVLLPLYFR were 0.335 and 0.659.
SITLPMCPLLLR: the values for the protein stability index in the data set on Saccharomyces cerevisiae [1] and in the data set on Saccharomyces cerevisiae [2] were 0.248 and 0.65, respectively.
On the same counts, the results for SSLRVLLPLYFR are 0.252 and 0.679.
Regarding VLVSLPILLFFR, the protein stability index in the data set on Saccharomyces cerevisiae [1] is 0.0972; in the data set with Saccharomyces cerevisiae [2], 0.56.
Taken in the same sequence, the figures for VVTRLDAIYFRI were 0.302 and 0.671.
In the case of YLVSLPILLFFR, the protein stability index with Saccharomyces cerevisiae [1] turned out to be 0.0822; with Saccharomyces cerevisiae [2] it was 0.538.
